The results in this text go back to patent US20070116702A1, “Survival promoting NCAM binding and MCAM ligand binding compounds” (priority 2001, published 2007).

The test system of the first assay is Hippocampal cells. Nature of the assay: Aggregate cell cultures of hippocampal cells (aggregates counted after 24 h). It counts as cell-based, rat. To be noted: ligand present during the aggregation of cells; quantified 24 h after seeding. The method, then: A variety of suitable fragments and variants of NCAM has been discussed above. To be able to identify candidate ligands capable of stimulating NCAM function, where the NCAM function means the function of the NCAM molecule, the inventors have established a simple cell culture system (aggregate cell cultures) that permits a quantitative evaluation of the effect of various ligands. Hippocampal cells are provided from rat embryos. The cells are grown in a defined medium and dissociated cells are seeded in microtiter plates. After 24 h, the, amount of aggregates are counted. Compounds to be tested are added to the cell suspension immediately before seeding of the cells in micro-wells. When NCAM Ig1 binding ligands are present during the aggregation of cells, smaller, but more numerous cell aggregates are seen when quantified 24 h after seeding of the cells. The inhibiting effect of the ligands results in a blockage of the formation of large aggregates from many small aggregates as the adhesion, properties of NCAM are blocked. Thus, small but more numerous cell aggregates are seen in the presence of active ligands.
Turning to “GEISVGESKFFL (listed as Homo sapiens) [Ig1-p]”, the “inhibition of aggregation of hippocampal cells” value is recorded as “inhibited aggregation”.
Still for that read-out and setting: under “ARALNWGAKPK (listed as Homo sapiens) [D4]” stands “inhibited aggregation”.
The same measure, in the same setting: with “GRILARGEINFK (listed as Homo sapiens) [Ig2-p]” the entry was “inhibited aggregation”.
Take “AKKERQRKDTQ (listed as Homo sapiens) [D3]”: the “inhibition of aggregation of hippocampal cells” value is reported as “inhibited aggregation”.

Another assay deals with T1, recombinant NCAM Ig1 domain produced in Pichia pastoris (Ig1 PP) (rat, UniProt P13596 20-116, limits assumed).
T1 construct: domain: Ig1; unlabelled analyte in the BIAlite experiment; also called NCAM Ig1-PP
Nature of the assay: one-bead one-peptide library stained with biotinylated NCAM Ig1.
Conditions: not given
The procedure:
The synthesis of the resin-bound one-bead one-peptide library was performed using the portioning, mix procedure (Furka et al., 1991). Polyethylene syringes served as reaction vessels throughout the synthesis and the final TFA-deprotection. TentaGel resin (Rapp Polymere, Tübingen, Germany) was divided into 18 aliquots and the protein L-amino acids except cysteine and histidine were used. Side-chains were protected with the following protecting groups: Asp(tBu), Glu(tBu), Tyr(tBu), Ser(tBu), Thr(tBu), Asn(trt), Gln(trt), Lys(Boc), Trp(Boc), Arg(pmc). Fmoc-protected amino acids (5 eq; Milligen or Novabiochem) were coupled overnight using 5eq DIC and 5eq HOBt. Removal of the Fmoc group was accomplished with 25% piperidine in DMF for 20 min. The side chain protecting groups were removed with […], 5% anisole, 5% H₂O, 5% EDT, 2.5% thioanisole at mom temperature for 2.5 h followed by washing with tetrahydrofuran and 1% HOAc and the resin was subsequently lyophilised. Screenings were done by incubating 2 ml resin (equivalent to ca. 10⁶ beads) with biotinylated receptor in Tris/HCl buffer (Tris/HCl 0.025 M, pH 7.2, 0.25 M NaCl, 0.1 % (w/v) Tween 20) containing 0.1% Gelatin (Sigma) for 60 min. Subsequently the resin was washed in Tris/HCl buffer and incubated with avidin-alkaline phosphatase (diluted 1:20000) for 30 min. The substrates BCIP/NBT (Sigma) were added as described by Lam et al. (1992) and stained beads were removed for micro sequencing. The library was screened with the receptor NCAM Ig1-PP (10 mg/ml).
Take AYYLIVRVNRI [SEQ ID NO 8]: the binding result was “binds”.
Turning to AKKEKPNKPND [SEQ ID NO 17], the binding result is “binds”.
Consider ARKTRERKSKD [SEQ ID NO 14], for which the binding result is recorded as “binds”.
Still for that read-out and setting: under ATNKKTGRRPR [SEQ ID NO 9] stands “binds”; under AKKKEQKQRNA [SEQ ID NO 20], “binds”; under ASKKPKRNIKA [C3 peptide (SEQ ID NO:1)], “binds”.
Same read-out and setting: under ASTKRSMQGI [SEQ ID NO 6] stands “binds”; under AKRSVQKLDGQ [SEQ ID NO 11], “binds”; under AQMGRQSIDRN [SEQ ID NO 18], “binds”.
In the case of ARALNWGAKPK [D4 peptide (SEQ ID NO:3)], the binding result was “binds”.
On the same count and under the same terms, under ASQAKRRKGPR [SEQ ID NO 15] stands “binds”.
Consider AKYVLIPIRIS [SEQ ID NO 5], for which the binding result is recorded as “binds”.
AGSAVKLKKKA [SEQ ID NO 4]: the binding result is recorded as “binds”.
Same read-out and setting: with APKLDRMLTKK [SEQ ID NO 16] the entry was “binds”.
Regarding AKKERQRKDTQ [D3 peptide (SEQ ID NO:2)], the binding result is “binds”.
Regarding AEGGKKKKMRA [SEQ ID NO 19], the binding result is recorded as “binds”.
Consider ARQKTMKPRRS [SEQ ID NO 12], for which the binding result is given as “binds”.
The same measure, in the same setting: with AGDYNPDLDR [SEQ ID NO 13] the entry was “binds”; with AKSRKGNSSLM [SEQ ID NO 21], “binds”.
Same read-out and setting: with AKRNGPLINRI [SEQ ID NO 10] the entry was “binds”.
The same measure, in the same setting: with ARKSRDMTAIK [SEQ ID NO 22] the entry was “binds”.
